{
  "source": "patent US20210171598A1",
  "about": "“PEPTIDE HORMONE WITH ONE OR MORE O-GLYCANS” (priority 2017, published 2021)",
  "molecules": {"B1": {"name": "ANP with one O-glycan (GalNAc/Tn) at residue 19 (peptide)", "peptide": "SLRRSSCFGGRMDRIGAQSGLGCNSFRY", "modifications": "not fully specified (residue 19); ends and bridges not checked"}, "B2": {"name": "ANP with T O-glycan at residue 25 (peptide)", "peptide": "SLRRSSCFGGRMDRIGAQSGLGCNS(code T)FRY", "modifications": "ends and bridges not checked"}, "B3": {"name": "ANP with T O-glycan at residue 19 (peptide)", "peptide": "SLRRSSCFGGRMDRIGAQS(code T)GLGCNSFRY", "modifications": "ends and bridges not checked"}, "B4": {"name": "ANP with diST O-glycan at residue 25 (peptide)", "peptide": "SLRRSSCFGGRMDRIGAQSGLGCNS(diST)FRY", "modifications": "not fully specified (bridges); ends and bridges not checked"}, "B5": {"name": "ANP with one O-glycan (GalNAc/Tn) at residue 25 (peptide)", "peptide": "SLRRSSCFGGRMDRIGAQSGLGCNSFRY", "modifications": "not fully specified (residue 25); ends and bridges not checked"}, "B6": {"name": "ANP with diST O-glycan at residue 19 (peptide)", "peptide": "SLRRSSCFGGRMDRIGAQS(diST)GLGCNSFRY", "modifications": "not fully specified (bridges); ends and bridges not checked"}, "B7": {"name": "ANP with ST O-glycan at residue 19 (peptide)", "peptide": "SLRRSSCFGGRMDRIGAQS(ST)GLGCNSFRY", "modifications": "ends and bridges not checked"}, "B8": {"name": "ANP with ST O-glycan at residue 25 (peptide)", "peptide": "SLRRSSCFGGRMDRIGAQSGLGCNS(ST)FRY", "modifications": "ends and bridges not checked"}},
  "key": {"[1]": {"target": "neprilysin (NEP) (Homo sapiens, UniProt P08473)", "sequence (P08473 whole entry)": "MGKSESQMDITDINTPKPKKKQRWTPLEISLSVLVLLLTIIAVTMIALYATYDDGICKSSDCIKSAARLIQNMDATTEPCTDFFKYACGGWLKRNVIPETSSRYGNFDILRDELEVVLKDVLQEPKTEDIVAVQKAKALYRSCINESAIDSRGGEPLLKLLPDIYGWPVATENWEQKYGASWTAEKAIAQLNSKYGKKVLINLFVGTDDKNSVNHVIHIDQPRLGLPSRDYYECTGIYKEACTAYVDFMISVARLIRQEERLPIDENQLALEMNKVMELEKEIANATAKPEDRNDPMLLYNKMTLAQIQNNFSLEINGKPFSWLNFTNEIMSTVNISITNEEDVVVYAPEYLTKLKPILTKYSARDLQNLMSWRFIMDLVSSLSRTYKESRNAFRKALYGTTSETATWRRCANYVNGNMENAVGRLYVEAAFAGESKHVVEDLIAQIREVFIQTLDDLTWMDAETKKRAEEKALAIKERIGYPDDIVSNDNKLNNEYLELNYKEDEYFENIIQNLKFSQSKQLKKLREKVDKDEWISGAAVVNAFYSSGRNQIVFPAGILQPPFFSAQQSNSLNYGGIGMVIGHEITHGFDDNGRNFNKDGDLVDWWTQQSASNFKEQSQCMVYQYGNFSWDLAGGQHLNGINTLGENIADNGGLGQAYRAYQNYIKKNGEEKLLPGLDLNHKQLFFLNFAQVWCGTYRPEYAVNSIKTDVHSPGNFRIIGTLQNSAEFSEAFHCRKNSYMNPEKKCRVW", "test": "In vitro degradation by neprilysin, MALDI-TOF time course", "experimental": "Many peptide hormones are destined for endocrine circulation where they are rapidly degraded with half-lives reaching only a few minutes^6-8.\nFor enzymatic degradation assays using either NEP or DPP-IV (R&D systems, UK), an enzyme titration was carried out to ensure full degradation within one hour of reaction time.\nMALDI-TOF-MS was performed on a Bruker Autoflex instrument (Bruker Daltonik GmbH, Bremen, Germany) by mixing the quenched aliquots with a saturated solution of α-Cyano-4-hydroxycinnamic acid in ACN/H2O/TFA (70:30:0.1) at a ratio 1:1 on a target steel plate and mass-spectra were acquired in linear mode.\nReactions were performed in 50 mM Tris, 0.05% Brij-35, pH 9 (Neprilysin), or 50 mM Tris, 20 mM NaCl, pH 7.5 (IDE) and incubated at 37° C."}, "[2]": {"target": "T1, NPR-A receptor (UniProt P16066 33-1061, limits assumed)", "T1 sequence (looked up)": "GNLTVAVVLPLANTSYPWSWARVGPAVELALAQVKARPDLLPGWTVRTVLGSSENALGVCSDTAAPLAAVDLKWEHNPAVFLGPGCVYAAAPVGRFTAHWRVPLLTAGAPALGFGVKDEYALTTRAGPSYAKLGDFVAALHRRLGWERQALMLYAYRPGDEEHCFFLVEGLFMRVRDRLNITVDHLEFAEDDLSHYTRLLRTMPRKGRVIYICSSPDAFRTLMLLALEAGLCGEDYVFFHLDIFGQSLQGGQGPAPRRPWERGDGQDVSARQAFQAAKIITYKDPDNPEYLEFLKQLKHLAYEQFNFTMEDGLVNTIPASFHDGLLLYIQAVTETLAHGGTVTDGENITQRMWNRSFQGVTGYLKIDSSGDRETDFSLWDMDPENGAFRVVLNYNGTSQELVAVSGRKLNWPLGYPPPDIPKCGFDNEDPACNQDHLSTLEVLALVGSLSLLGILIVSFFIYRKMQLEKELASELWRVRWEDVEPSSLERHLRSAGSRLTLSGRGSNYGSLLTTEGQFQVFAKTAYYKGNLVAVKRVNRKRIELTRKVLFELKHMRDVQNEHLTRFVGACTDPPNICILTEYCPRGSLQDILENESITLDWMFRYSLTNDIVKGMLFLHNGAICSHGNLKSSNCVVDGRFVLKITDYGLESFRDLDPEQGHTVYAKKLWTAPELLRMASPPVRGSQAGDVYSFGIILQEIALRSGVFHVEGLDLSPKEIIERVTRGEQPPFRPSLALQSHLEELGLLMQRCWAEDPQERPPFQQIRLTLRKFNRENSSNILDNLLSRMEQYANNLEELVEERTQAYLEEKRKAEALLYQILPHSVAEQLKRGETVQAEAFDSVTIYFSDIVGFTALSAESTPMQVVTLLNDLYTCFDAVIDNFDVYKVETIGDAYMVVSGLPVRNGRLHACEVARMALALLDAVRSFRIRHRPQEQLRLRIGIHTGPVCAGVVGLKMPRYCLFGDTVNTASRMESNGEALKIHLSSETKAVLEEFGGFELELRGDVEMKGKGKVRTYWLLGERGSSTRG", "test": "cell-based or functional assay"}},
  "note": "Read-outs that look alike come from different tables or passages of the source. No end group written: not given here. *: point of attachment. diST = diST O-glycan, CC(=O)N[C@@H]1[C@@H](O[C@@H]2O[C@H](CO)[C@H](O)[C@H](O[C@]3(C(=O)O)C[C@H](O)[C@@H](NC(C)=O)[C@H]([C@H](O)[C@H](O)CO)O3)[C@H]2O)[C@@H](O)[C@@H](CO[C@]2(C(=O)O)C[C@H](O)[C@@H](NC(C)=O)[C@H]([C@H](O)[C@H](O)CO)O2)O[C@@H]1*; code T = T O-glycan (Galβ1-3GalNAc), CC(=O)N[C@@H]1[C@@H](O[C@@H]2O[C@H](CO)[C@H](O)[C@H](O)[C@H]2O)[C@@H](O)[C@@H](CO)O[C@@H]1*; ST = sialylated T O-glycan",
  "data": [
    {"molecule": "CC(=O)N[C@H]1[C@@H](O[C@H](C)[C@H](NC(=O)[C@H](Cc2ccccc2)NC(=O)[C@@H](NC(=O)CNC(=O)[C@H](CC(=O)O)NC(=O)[C@H](CO)NC(=O)[C@@H](N)Cc2c[nH]cn2)[C@@H](C)O)C(=O)N[C@@H](CO)C(=O)N[C@@H](CCC(=O)O)C(=O)N[C@@H](CC(C)C)C(=O)N[C@@H](CO)C(=O)N[C@@H](CCCNC(=N)N)C(=O)N[C@@H](CC(C)C)C(=O)N[C@@H](CCCNC(=N)N)C(=O)N[C@@H](CCC(=O)O)C(=O)NCC(=O)N[C@@H](C)C(=O)N[C@@H](CCCNC(=N)N)C(=O)N[C@@H](CC(C)C)C(=O)N[C@@H](CCC(N)=O)C(=O)N[C@@H](CCCNC(=N)N)C(=O)N[C@@H](CC(C)C)C(=O)N[C@@H](CC(C)C)C(=O)N[C@@H](CCC(N)=O)C(=O)NCC(=O)N[C@@H](CC(C)C)C(=O)N[C@H](C(N)=O)C(C)C)O[C@H](CO)[C@H](O)[C@@H]1O", "note": "[Secretin-Thr7-Tn]", "values": [
      {"measurement": "remained (completely) intact after incubation with NEP", "setting": "[1]; 37° C., MALDI-TOF", "value": 60, "unit": "min"}
    ]},
    {"molecule": "CC[C@H](C)[C@H](NC(=O)[C@H](CO)NC(=O)[C@H](CC(N)=O)NC(=O)[C@H](CC(C)C)NC(=O)[C@H](Cc1ccc(O)cc1)NC(=O)[C@H](CCCCN)NC(=O)[C@H](CCCCN)NC(=O)[C@@H](NC(=O)[C@H](C)NC(=O)[C@H](CCSC)NC(=O)[C@H](CCC(N)=O)NC(=O)[C@H](CCCCN)NC(=O)[C@H](CCCN=C(N)N)NC(=O)[C@H](CC(C)C)NC(=O)[C@H](CCCN=C(N)N)NC(=O)[C@@H](NC(=O)[C@H](Cc1ccc(O)cc1)NC(=O)[C@H](CC(N)=O)NC(=O)[C@H](CC(=O)O)NC(=O)[C@@H](NC(=O)[C@H](Cc1ccccc1)NC(=O)[C@@H](NC(=O)[C@H](C)NC(=O)[C@H](CC(=O)O)NC(=O)[C@H](CO)NC(=O)[C@@H](N)Cc1c[nH]cn1)C(C)C)[C@@H](C)O)[C@@H](C)O)C(C)C)C(=O)N[C@@H](CC(C)C)C(=O)N[C@@H](CC(N)=O)C(N)=O", "note": "[VIP, Vasoactive intestinal peptide, reference compound]", "values": [
      {"measurement": "time to complete degradation by NEP", "setting": "[1]; 37° C., MALDI-TOF", "value": 15, "unit": "min"}
    ]},
    {"molecule": "CC[C@H](C)[C@H](NC(=O)[C@H](CO)NC(=O)[C@H](CC(N)=O)NC(=O)[C@H](CC(C)C)NC(=O)[C@H](Cc1ccc(O)cc1)NC(=O)[C@H](CCCCN)NC(=O)[C@H](CCCCN)NC(=O)[C@@H](NC(=O)[C@H](C)NC(=O)[C@H](CCSC)NC(=O)[C@H](CCC(N)=O)NC(=O)[C@H](CCCCN)NC(=O)[C@H](CCCNC(=N)N)NC(=O)[C@H](CC(C)C)NC(=O)[C@H](CCCNC(=N)N)NC(=O)[C@@H](NC(=O)[C@H](Cc1ccc(O)cc1)NC(=O)[C@H](CC(N)=O)NC(=O)[C@H](CC(=O)O)NC(=O)[C@@H](NC(=O)[C@H](Cc1ccccc1)NC(=O)[C@@H](NC(=O)[C@H](C)NC(=O)[C@H](CC(=O)O)NC(=O)[C@H](CO)NC(=O)[C@@H](N)Cc1c[nH]cn1)C(C)C)[C@@H](C)O[C@H]1O[C@H](CO)[C@H](O)[C@H](O[C@@H]2O[C@H](CO)[C@H](O)[C@H](O)[C@H]2O)[C@H]1NC(C)=O)[C@@H](C)O)C(C)C)C(=O)N[C@@H](CC(C)C)C(=O)N[C@@H](CC(N)=O)C(N)=O", "note": "[VIP-Thr7/T]", "values": [
      {"measurement": "residual full length / partially intact peptide detectable after incubation with NEP", "setting": "[1]; 37° C., MALDI-TOF", "value": 30, "unit": "min"}
    ]},
    {"molecule": "CC[C@H](C)[C@H](NC(=O)[C@H](CO)NC(=O)[C@H](CC(N)=O)NC(=O)[C@H](CC(C)C)NC(=O)[C@H](Cc1ccc(O)cc1)NC(=O)[C@H](CCCCN)NC(=O)[C@H](CCCCN)NC(=O)[C@@H](NC(=O)[C@H](C)NC(=O)[C@H](CCSC)NC(=O)[C@H](CCC(N)=O)NC(=O)[C@H](CCCCN)NC(=O)[C@H](CCCNC(=N)N)NC(=O)[C@H](CC(C)C)NC(=O)[C@H](CCCNC(=N)N)NC(=O)[C@@H](NC(=O)[C@H](Cc1ccc(O)cc1)NC(=O)[C@H](CC(N)=O)NC(=O)[C@H](CC(=O)O)NC(=O)[C@@H](NC(=O)[C@H](Cc1ccccc1)NC(=O)[C@@H](NC(=O)[C@H](C)NC(=O)[C@H](CC(=O)O)NC(=O)[C@H](CO)NC(=O)[C@@H](N)Cc1c[nH]cn1)C(C)C)[C@@H](C)O[C@H]1O[C@H](CO)[C@H](O)[C@H](O)[C@H]1NC(C)=O)[C@@H](C)O)C(C)C)C(=O)N[C@@H](CC(C)C)C(=O)N[C@@H](CC(N)=O)C(N)=O", "note": "[VIP-Thr7/Tn]", "values": [
      {"measurement": "residual full length / partially intact peptide detectable after incubation with NEP", "setting": "[1]; 37° C., MALDI-TOF", "value": 15, "unit": "min"}
    ]},
    {"molecule": "Galanin-Ser55/ST: sialylated Galanin variant", "values": [
      {"measurement": "remained intact / resistant to NEP degradation even after", "setting": "[1]", "value": 24, "unit": "h"},
      {"measurement": "state after overnight incubation with neprilysin", "setting": "[1]", "value": "remained partially intact"}
    ]},
    {"molecule": "Ser23-T: Galanin Ser23 T extended glycoform", "values": [
      {"measurement": "time to complete degradation by NEP", "setting": "[1]", "value": 120, "unit": "min"}
    ]},
    {"molecule": "Ser23-Tn: Galanin Ser23-Tn glycoform", "values": [
      {"measurement": "time to complete degradation by NEP", "setting": "[1]", "value": 120, "unit": "min"}
    ]},
    {"molecule": "B1", "values": [
      {"measurement": "reduction in efficacy, cGMP generated", "setting": "[2]", "value": "~20", "unit": "%"}
    ]},
    {"molecule": "B2", "values": [
      {"measurement": "increase in efficacy, cGMP generated", "setting": "[2]", "value": "~20", "unit": "%"},
      {"measurement": "potency, cGMP generated (HTRF)", "setting": "[2]", "value": 265, "unit": "nM"}
    ]},
    {"molecule": "B3", "values": [
      {"measurement": "potency, cGMP generated (HTRF)", "setting": "[2]", "value": 160, "unit": "nM"},
      {"measurement": "reduction in efficacy, cGMP generated", "setting": "[2]", "value": "~20", "unit": "%"}
    ]},
    {"molecule": "B4", "values": [
      {"measurement": "increase in efficacy, cGMP generated", "setting": "[2]", "value": "~20", "unit": "%"}
    ]},
    {"molecule": "B5", "values": [
      {"measurement": "increase in efficacy, cGMP generated", "setting": "[2]", "value": "~20", "unit": "%"}
    ]},
    {"molecule": "B6", "values": [
      {"measurement": "reduction in efficacy, cGMP generated", "setting": "[2]", "value": "~20", "unit": "%"}
    ]},
    {"molecule": "B7", "values": [
      {"measurement": "potency, cGMP generated (HTRF)", "setting": "[2]", "value": 296, "unit": "nM"},
      {"measurement": "reduction in efficacy, cGMP generated", "setting": "[2]", "value": "~20", "unit": "%"}
    ]},
    {"molecule": "B8", "values": [
      {"measurement": "increase in efficacy, cGMP generated", "setting": "[2]", "value": "~20", "unit": "%"},
      {"measurement": "potency, cGMP generated (HTRF)", "setting": "[2]", "value": 717, "unit": "nM"}
    ]}
  ]
}
